Test [1] concerns TβRI GS region peptide (F-Ahx-YDMTTpSGpSGpSGLPLL). Kind of test: Fluorescence anisotropy binding to TβRI GS peptide. The conditions noted are these: fluorescence anisotropy; for Kd: 20 mM Tris, pH 7.9, 160 mM NaCl, 10-min incubation, average ±S.D., n = 3, read-out: Kd for peptide binding, GS peptide. From the text:
(§1) However, this tentative assignment has been confirmed neither by a high-resolution structure of the Smad2-TβRI complex nor by a quantitative and systematic binding study, leaving uncertainty about the exact nature of the Smad2-TβRI-binding interface. Since the L3 loop is a part of the newly identified PI(4,5)P2-binding site, we checked if these PI(4,5)P2-binding residues are also involved in the Smad2-TβRI interaction using two fluorescein-labeled synthetic peptides derived from the GS region (i.e., GS peptide: fluorescein-aminohexanoyl (F-Ahx)-YDMTTpSGpSGpSGLPLL) and the L45 loop (i.e., L45 peptide: F-Ahx-ADNKDNGT), respectively. In particular, the GS peptide represents the GS motif triply phosphorylated by TβRII. We then measured binding to Smad2 WT and mutants to these peptides by fluorescence anisotropy according to our established protocol ([21]). […] We thus primarily used the GS peptide to assess the effects of mutations on the Smad2-TβRI interaction. […] They also yielded distinct structural variants for further functional studies. Specifically, W422A and Y426A could serve as specific PI(4,5)P2 binding-compromised mutants and K420A as a predominantly TβRI binding-compromised mutant. R427A/R428A could also serve as a PI(4,5)P2 and TβRI binding-compromised mutant, whereas E425K as a PI(4,5)P2 and TβRI binding-enhanced mutant.
(§2) Figure 3 Affinity of Smad2 WT and mutants for TβRI-derived peptides determined by fluorescence anisotropy.A, binding of Smad2 WT (black), W422A (red), Y420A (cyan), R427A/R428A (green), K420A (blue), and E425K (orange) to the GS peptide (F-Ahx-YDMTTpSGpSGpSGLPLL). […] B, binding of Smad2 WT (black), W422A (red), Y420A (cyan), R427A/R428A (green), K420A (blue), and E425K (orange) to the L45 loop peptide (F-Ahx-DNKDNGT). C, effects of 50 μM POPC/POPS/PI(4,5)P2 (77:20:3) LUVs on binding of Smad2 to the GS peptide. The presence of vesicles (orange) raises the Kd value from 20 ± 6 to 60 ± 7 nM. The peptide concentration was fixed at 2.5 nM, and the Smad2 concentration was varied from 0 to 150 μM. The experimentally observed anisotropy (A) values were normalized (Anorm) using the equation: Anorm = (A − Amin)/(Amax − Amin) where Amax and Amin are maximal and minimal A values, respectively, for each measurement. The plots of Anormversus [Smad2] were analyzed by the nonlinear least-squares analysis using the equation: Anorm = 1/(1 + Kd/[Smad2]).
(§3) The fluorescein-6-aminohexanoyl (F-Ahx)-labeled TβRI GS region peptide (F-Ahx-YDMTTpSGpSGpSGLPLL) was dissolved in dimethyl sulfoxide to yield 1 mg/ml stock solution, F-Ahx-labeled TβRI L45 loop region peptide (F-Ahx-ADNKDNGT) was dissolved in a 3:1 mixture of water and acetonitrile to yield 2.5 mg/ml stock solution. Both peptide solutions were diluted to 1 to 10 μM with 20 mM Tris buffer, pH 7.9, containing 160 mM NaCl for binding studies. In total, 300 μl of the Smad2 (WT or mutant) solution (0–250 μM) was added to a series of 1.5 ml microcentrifuge containing the peptide solution (2.5 μM). After 10-min incubation in the dark, the mixture was transferred to a quartz cuvette with 2-mm path length and fluorescence anisotropy (r) was measured with excitation and emission wavelengths set at 485 and 535 nm, respectively, using Horiba Flurolog-3 spectrofluorometer. Since Po >> Pepo under our conditions, the Kd for the Smad2-peptide binding was determined by the nonlinear least-squares analysis of the binding isotherm using the Equation 1:(1) Pepbound/Pep0=Δr/Δrmax=1/1+kd/P0 where Pepbound, Pep0, and P0 indicate the concentration of bound peptide, total peptide, and total Smad2, respectively, and Δr and Δrmax are the anisotropy change for each P0 and the maximal Δr, respectively.
A general note: In fluorescence polarisation assays a small probe gives low polarisation when free and higher when bound to something large.

The subject of test [2] is TβRI L45 loop region peptide (F-Ahx-ADNKDNGT). Kind of test: Fluorescence anisotropy binding to TβRI L45 peptide. The conditions noted are these: for Kd: 20 mM Tris, pH 7.9, 160 mM NaCl, 10-min incubation, average ±S.D., n = 3.
Excerpt: as §1, §2, §3

The results in this text go back to PMC8567202, “Phosphoinositide-binding activity of Smad2 is essential for its function in TGF-β signaling” (The Journal of Biological Chemistry, 2021).

Entries after “also recorded” stand apart in the source; their conditions may differ.

As a reminder, the Kd is a measure of binding affinity in units of concentration.

B1: Smad2-W422A: W422A mutant of full-length Smad2; specific PI(4,5)P2 binding-compromised (protein)
chain: MSSILPFTPPVVKRLLGWKKSAGGSGGAGGGEQNGQEEKWCEKAVKSLVKKLKKTGRLDELEKAITTQNCNTKCVTIPSTCSEIWGLSTANTVDQWDTTGLYSFSEQTRSLDGRLQVSHRKGLPHVIYCRLWRWPDLHSHHELKAIENCEYAFNLKKDEVCVNPYHYQRVETPVLPPVLVPRHTEILTELPPLDDYTHSIPENTNFPAGIEPQSNYIPETPPPGYISEDGETSDQQLNQSMDTGSPAELSPTTLSPVNHSLDLQPVTYSEPAFWCSIAYYELNQRVGETFHASQPSLTVDGFTDPSNSERFCLGLLSNVNRNATVEMTRRHIGRGVRLYYIGGEVFAECLSDSAIFVQSPNCNQRYGWHPATVCKIPPGCNLKIFNNQEFAALLAQSVNQGFEAVYQLTRMCTIRMSFVKGAGAEYRRQTVTSTPCWIELHLNGPLQWLDKVLTQMGSPSVRCSSMS
modifications: left off: His6, N-terminal, state not stated
Turning to B1, in test [1], the “GS peptide affinity relative to WT” value is given as “essentially the same affinity as the WT; also recorded: essentially identical binding curves” and the dissociation constant (Kd) came to 21 ± 5 µM. In addition, in test [2], the “L45 peptide affinity relative to WT” value is “WT-like affinity” and the dissociation constant Kd was 67 ± 6 µM.

B2: Smad2-K420A: K420A mutant of full-length Smad2; predominantly TβRI binding-compromised (protein)
chain: MSSILPFTPPVVKRLLGWKKSAGGSGGAGGGEQNGQEEKWCEKAVKSLVKKLKKTGRLDELEKAITTQNCNTKCVTIPSTCSEIWGLSTANTVDQWDTTGLYSFSEQTRSLDGRLQVSHRKGLPHVIYCRLWRWPDLHSHHELKAIENCEYAFNLKKDEVCVNPYHYQRVETPVLPPVLVPRHTEILTELPPLDDYTHSIPENTNFPAGIEPQSNYIPETPPPGYISEDGETSDQQLNQSMDTGSPAELSPTTLSPVNHSLDLQPVTYSEPAFWCSIAYYELNQRVGETFHASQPSLTVDGFTDPSNSERFCLGLLSNVNRNATVEMTRRHIGRGVRLYYIGGEVFAECLSDSAIFVQSPNCNQRYGWHPATVCKIPPGCNLKIFNNQEFAALLAQSVNQGFEAVYQLTRMCTIRMSFVAGWGAEYRRQTVTSTPCWIELHLNGPLQWLDKVLTQMGSPSVRCSSMS
modifications: left off: His6, N-terminal, state not stated
Consider B2, for which, in test [1], the “GS peptide affinity relative to WT” value is given as “tenfold decrease; also recorded: tenfold lower affinity than the WT” and the Kd is 200 ± 48 µM. In addition, in test [2], the “L45 peptide affinity relative to WT” value was “lowest affinity” and the dissociation constant Kd worked out at 100 ± 16 µM.

B3: Smad2-Y426A: Y426A mutant of full-length Smad2; specific PI(4,5)P2 binding-compromised (protein)
chain: MSSILPFTPPVVKRLLGWKKSAGGSGGAGGGEQNGQEEKWCEKAVKSLVKKLKKTGRLDELEKAITTQNCNTKCVTIPSTCSEIWGLSTANTVDQWDTTGLYSFSEQTRSLDGRLQVSHRKGLPHVIYCRLWRWPDLHSHHELKAIENCEYAFNLKKDEVCVNPYHYQRVETPVLPPVLVPRHTEILTELPPLDDYTHSIPENTNFPAGIEPQSNYIPETPPPGYISEDGETSDQQLNQSMDTGSPAELSPTTLSPVNHSLDLQPVTYSEPAFWCSIAYYELNQRVGETFHASQPSLTVDGFTDPSNSERFCLGLLSNVNRNATVEMTRRHIGRGVRLYYIGGEVFAECLSDSAIFVQSPNCNQRYGWHPATVCKIPPGCNLKIFNNQEFAALLAQSVNQGFEAVYQLTRMCTIRMSFVKGWGAEARRQTVTSTPCWIELHLNGPLQWLDKVLTQMGSPSVRCSSMS
modifications: left off: His6, N-terminal, state not stated
Consider B3, for which, in test [1], the “GS peptide affinity relative to WT” value was “essentially the same affinity as the WT” and the Kd was 20 ± 3 µM. Besides, in test [1] (listed as Y420A), the “GS peptide affinity relative to WT” value was “essentially identical binding curves”. In addition, in test [2], the “L45 peptide affinity relative to WT” value is on record as “WT-like affinity” and the Kd amounted to 70 ± 7 µM.

B4: Smad2-E425K: charge-reversal mutant of full-length Smad2; PI(4,5)P2 and TβRI binding-enhanced (protein)
chain: MSSILPFTPPVVKRLLGWKKSAGGSGGAGGGEQNGQEEKWCEKAVKSLVKKLKKTGRLDELEKAITTQNCNTKCVTIPSTCSEIWGLSTANTVDQWDTTGLYSFSEQTRSLDGRLQVSHRKGLPHVIYCRLWRWPDLHSHHELKAIENCEYAFNLKKDEVCVNPYHYQRVETPVLPPVLVPRHTEILTELPPLDDYTHSIPENTNFPAGIEPQSNYIPETPPPGYISEDGETSDQQLNQSMDTGSPAELSPTTLSPVNHSLDLQPVTYSEPAFWCSIAYYELNQRVGETFHASQPSLTVDGFTDPSNSERFCLGLLSNVNRNATVEMTRRHIGRGVRLYYIGGEVFAECLSDSAIFVQSPNCNQRYGWHPATVCKIPPGCNLKIFNNQEFAALLAQSVNQGFEAVYQLTRMCTIRMSFVKGWGAKYRRQTVTSTPCWIELHLNGPLQWLDKVLTQMGSPSVRCSSMS
modifications: left off: His6, N-terminal, state not stated
Take B4: in test [1], the “GS peptide affinity relative to WT” value was “twofold higher affinity” and the Kd came out at 8 ± 0.8 µM. For the same molecule, in test [2], the “L45 peptide affinity relative to WT” value is “slightly higher affinity” and the dissociation constant (Kd) turned out to be 55 ± 3 µM.

B5: Smad2- R427A/R428A: double mutant of full-length Smad2; PI(4,5)P2 and TβRI binding-compromised (protein)
chain: MSSILPFTPPVVKRLLGWKKSAGGSGGAGGGEQNGQEEKWCEKAVKSLVKKLKKTGRLDELEKAITTQNCNTKCVTIPSTCSEIWGLSTANTVDQWDTTGLYSFSEQTRSLDGRLQVSHRKGLPHVIYCRLWRWPDLHSHHELKAIENCEYAFNLKKDEVCVNPYHYQRVETPVLPPVLVPRHTEILTELPPLDDYTHSIPENTNFPAGIEPQSNYIPETPPPGYISEDGETSDQQLNQSMDTGSPAELSPTTLSPVNHSLDLQPVTYSEPAFWCSIAYYELNQRVGETFHASQPSLTVDGFTDPSNSERFCLGLLSNVNRNATVEMTRRHIGRGVRLYYIGGEVFAECLSDSAIFVQSPNCNQRYGWHPATVCKIPPGCNLKIFNNQEFAALLAQSVNQGFEAVYQLTRMCTIRMSFVKGWGAEYAAQTVTSTPCWIELHLNGPLQWLDKVLTQMGSPSVRCSSMS
modifications: left off: His6, N-terminal, state not stated
For B5, in test [1], the “GS peptide affinity relative to WT” value is reported as “twofold lower affinity than the WT” and the Kd worked out at 44 ± 4 µM. In test [2], the “L45 peptide affinity relative to WT” value was “slightly lower affinity” and the equilibrium dissociation constant (Kd) is 75 ± 11 µM.
